The values that follow come from patent US20260072038A1.

Experiment [1] addresses huCD64/human FcRI (R&D Systems 1257FC) (human) (UniProt P12314). The experiment is described as follows: SPR (Biacore), antibody captured on Protein A CM5 chip, CD64 as analyte. (In general: In SPR one partner is held on a chip, and binding of the other changes the refractive index at the surface.)
For experiment [2] the target is unchanged. The experiment is described as follows: SPR (Biacore), average of three BYL batches, CD64 as analyte.
The target in experiment [3] is Human TNFa (recombinant) (human) (UniProt P01375). Put plainly: SPR (Biacore), average of three BYL batches, TNFa as analyte.
The target is the same in experiment [4]. Put plainly: SPR (Biacore), antibody captured on Protein A CM5 chip, TNFa as analyte.

What is called Kd is the free concentration of one partner at which half of the binding sites on the other are occupied at equilibrium, for simple one-to-one binding. “Humira CF CHJ (adalimumab produced in BYL/ALiCE, batch CHJ) (antibody)” came in with a dissociation constant Kd in experiment [1] of 346 pM.

As to “BYL-mAb (adalimumab produced in BYL, average of the three batches) (antibody)”, the values for the equilibrium dissociation constant (Kd) in experiment [2] and in experiment [3] were 353 pM and 134 pM, respectively.

The term koff denotes the rate constant with which the complex falls apart. As a reminder, the kon is a measure of how fast the partners come together. In experiment [1], “Humira CF DB3 (adalimumab produced in BYL/ALiCE, batch DB3) (antibody)” registered a Kd of 367 pM, a koff of 0.000252 s⁻¹ and an on-rate constant (kon) of 686000 M⁻¹ s⁻¹. For the same substance, in experiment [4], the Kd was 122 pM, the koff turned out to be 5.83e-05 s⁻¹ and the kon was 478000 M⁻¹ s⁻¹.

Consider “Reference IgG Adalinumab (Humira) (ABIN5668145), commercial adalimumab reference product expressed from CHO cells (antibody)”, for which, in experiment [1], the Kd turned out to be 158 pM, the off-rate (koff) amounted to 0.000152 s⁻¹ and the kon was found to be 959000 M⁻¹ s⁻¹. In experiment [4], the dissociation constant Kd came out at 185 pM, the off-rate (koff) is 8.37e-05 s⁻¹ and the kon turned out to be 453000 M⁻¹ s⁻¹.

Consider “Humira CF DAK (adalimumab produced in BYL/ALiCE, batch DAK) (antibody)”, for which the Kd in experiment [1] stood at 346 pM.
